Measurements as given in article PMC8145246 (Toxins, 2021).

B1: MazF-mt1 toxin (M. tb), purified protein (enzyme)
chain: MMRRGEIWQVDLDPARGSEANNQRPAVVVSNDRANATATRLGRGVITVVPVTSNIAKVYPFQVLLSATTTGLQVDCKAQAEQIRSIATERLLRPIGRVSAAELAQLDEALKLHLDLWS

Tests used:
crystal structure = target: the molecule itself; experiment: crystal structure
[1] = target: B1; experiment: crystal structure; conditions: both partners purified

Binder	binding result (crystal structure)	binding result [1]
B1	binds	–
TLEDDYANAWQEWSAAG [MazE-mt1 α3 peptide (Thr42-Gly58)]	–	binds
